For three molecules, repression of LEF-1•β-catenin activated TOPFlash luciferase reporter in COS-1 cells, 250 and 500 ng Groucho expression vector, repression of LEF-1•β-catenin activated TOPFlash luciferase reporter in COS-1 cells and repression of LEF-1•β-catenin activated TOPFlash luciferase reporter in COS-1 cells, 250 and 500 ng AES expression vector results are on record in paper PMC2701438.

The test addresses Full length LEF-1 (1-399) (human) (UniProt Q9UJU2).
Sequence of UniProt Q9UJU2 (Q9UJU2 whole entry): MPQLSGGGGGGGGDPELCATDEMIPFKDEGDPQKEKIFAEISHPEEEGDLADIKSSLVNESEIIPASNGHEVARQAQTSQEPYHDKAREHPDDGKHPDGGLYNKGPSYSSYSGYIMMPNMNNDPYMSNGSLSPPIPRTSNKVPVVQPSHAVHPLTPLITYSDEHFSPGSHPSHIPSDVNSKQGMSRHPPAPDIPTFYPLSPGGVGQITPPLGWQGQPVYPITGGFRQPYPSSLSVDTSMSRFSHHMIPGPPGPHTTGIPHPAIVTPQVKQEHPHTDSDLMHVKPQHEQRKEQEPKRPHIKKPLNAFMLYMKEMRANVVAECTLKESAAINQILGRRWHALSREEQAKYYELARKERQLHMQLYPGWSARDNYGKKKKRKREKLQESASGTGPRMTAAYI

“GST-Groucho (Drosophila), recovered as a 97 kDa protease-stable fusion protein (from UniProt P16371 1-730) (natural protein)”: the repression of LEF-1•β-catenin activated TOPFlash luciferase reporter in COS-1 cells, 250 and 500 ng Groucho expression vector is 3 fold.
“human TLE-2 (from UniProt Q04725 1-743) (natural protein)” gave a repression of LEF-1•β-catenin activated TOPFlash luciferase reporter in COS-1 cells of 3 fold.

B1: human Amino-enhancer-of-split (AES) (natural protein)
chain: MMFPQSRHSGSSHLPQQLKFTTSDSCDRIKDEFQLLQAQYHSLKLECDKLASEKSEMQRHYVMYYEMSYGLNIEMHKQAEIVKRLNGICAQVLPYLSQEHQQQVLGAIERAKQVTAPELNSIIRQQLQAHQLSQLQALALPLTPLPVGLQPPSLPAVSAGTGLLSLSALGSQAHLSKEDKNGHDGDTHQEDDGEKSD
B1 displayed a repression of LEF-1•β-catenin activated TOPFlash luciferase reporter in COS-1 cells, 250 and 500 ng AES expression vector of 3 fold.
